Results on 1 molecule are retold here after patent US9823254B2, “Reversible chemoenzymatic labeling of native and fusion carrier protein motifs” (The Regents of the University of California, priority 2012, dated 2017).

One assay concerns P. fluorescens PltL. Description: AcpH qualitative CP activity, gel-based, crypto-CP. The assay is classed as biochemical.
A further assay has as its system M. tuberculosis MAS. Description: AcpH qualitative CP activity, gel-based, crypto-CP. In kind it is biochemical. The following applies: FAS (FAS/PKS hybrid), overnight, 37° C., 1 μM AcpH.
For another assay, the system named is L majuscula JamF. Kind of assay: AcpH qualitative CP activity, gel-based, crypto-CP. The assay is classed as biochemical. The settings on record: PKS; crypto-CP (coumarin-PPant), overnight, 37° C., 1 μM AcpH.
For assay [1], the system named is ACP fusion proteins (MBP, GFP, Lux-ACP). Description: AcpH label removal from rhodamine-labeled ACP fusion proteins. In kind it is biochemical. The settings on record: N-terminal MBP, C-terminal GFP, N-terminal luciferase (Lux-ACP) fusions. Here is the method: Purified apo-MBP-PaACP at 200 μM was labeled with 1 mM rhodamine-CoA and 13 μM native Sfp in a reaction volume of 20 μL for 3 hours at 37° C. Purified apo-GFP-ACP at 150 μM was labeled with 1 mM rhodamine-CoA and 7 μM native Sfp in a reaction volume of 35 μL for 3 hours at 37° C. Purified apo-Lux-ACP at 12 μM was labeled with 50 μM rhodamine-CoA and 3 μM native Sfp for 1 hour at 37° C. Fusion ACPs were then re-purified from excess rhodamine-CoA and native Sfp using Ni-NTA resin, and buffer exchanged and concentrated using 10 kDa MWCO 0.5 mL Amicon spin filters (Millipore). Label removal of MBP-ACP and GFP-ACP proceeded with 4 μL of the concentrated crypto-fusion ACPs with 10 μM AcpH in 10 μL of AcpH reaction buffer for 3 hours at 37° C. 6 μM crypto-Lux-ACP was reacted with 5 μM AcpH for 3 hours at 37° C. AcpH reaction samples were run immediately afterwards on Urea-PAGE (MBP-ACP and GFP-ACP) or SDS-PAGE (Lux-ACP) with no further purification.

In the next assay the target is T1, V. cholerae VibB (Vibrio cholerae serotype O1, UniProt P0C6D3).
T1 sequence (P0C6D3 whole entry, looked up): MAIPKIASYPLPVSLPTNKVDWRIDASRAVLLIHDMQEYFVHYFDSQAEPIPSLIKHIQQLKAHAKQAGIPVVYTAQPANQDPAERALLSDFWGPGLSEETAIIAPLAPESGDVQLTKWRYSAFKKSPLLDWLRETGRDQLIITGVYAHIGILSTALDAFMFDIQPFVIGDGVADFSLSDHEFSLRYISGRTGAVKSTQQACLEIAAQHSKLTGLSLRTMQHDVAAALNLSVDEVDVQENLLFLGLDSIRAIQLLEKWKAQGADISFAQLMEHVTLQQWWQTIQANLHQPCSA
The settings on record: NRPS; crypto-CP (coumarin-PPant), overnight, 37° C., 1 μM AcpH.

The next assay relates to YbbR13. Description: AcpH activity with modified ybbR peptide, qualitative. In kind it is biochemical. The following applies: coumarin-PPant labeled.

Procedure for P. fluorescens PltL: Unless otherwise noted, all coumarin-PPant labeling proceeded as follows: apo-carrier protein or peptide at 50-200 μM were labeled in 50 mM Na-HEPES pH 7.5, 10 mM MgCl2, 8 mM ATP, 0.1 μM MBP-CoaA/D/E, 0.1 μM native Sfp, and 1.1 equivalents of coumarin-pantetheine at 37° C. overnight. Crypto-protein samples were repurified using standard IMAC techniques in pH 8 lysis buffer with Ni-NTA resin, and spin-concentrated/buffer exchanged to remove imidazole and concentrate with 0.5 mL 3 kDa MWCO cellulose filters.
Following AcpH treatment, an equal volume of 2×SDS-PAGE loading dye was added to crypto-carrier proteins samples and heated 5 min at 90° C., and run on 12% or 15% SDS-PAGE. Gels were fixed in 50/40/10% water/methanol/acetic acid for 30 minutes, and washed with water three times before UV imaging. Holo-carrier protein reactions were analyzed with Urea-PAGE as previously described.^6 All protein gels were Coomassie stained for evaluating total protein.

B1: PaAcpH: acyl carrier protein hydrolase (AcpH) from P. aeruginosa PAO1, NP13 253043.1 (protein)
chain: MNYLAHLHLGGPQPAQLLGSLYGDFVKGRLQGQWPDEIERAIQLHRRIDAFTDSHPLVHAAKRRFPLERRRFAGVLLDVFFDHCLARDWNDYADEPLPQFVERVYGTLRTASPLPERLARIAPRMAAQDWLGSYREFAVLREVLGGMSRRLSRPHLLDGSWEELAQRYDDLSADFRAFYPQLQAFALSQR
With B1, in the assay on P. fluorescens PltL (NRPS-type PCP, crypto-PltL), the “AcpH activity with PltL” value was “partial activity”. Further, the “AcpH qualitative CP activity” value in the assay with P. fluorescens PltL (NRPS, crypto-CP (coumarin-PPant), overnight, 37° C., 1 μM AcpH) is “YES”; in the assay on M. tuberculosis MAS it was “no”; with L majuscula JamF, “no”; with V. cholerae VibB, “no”. Further, the “removal of rhodamine-PPT from ACP fusion proteins” value in assay [1] is “removed rhodamine-PPT”. Moreover, the “AcpH activity with modified ybbR peptide” value with YbbR13 (YbbR13: N-term 6xHis, C-term GFP) is listed as “no”; in the assay with YbbR13 (YbbR13: N-term FITC, C-term N/A), “no”; in the assay with YbbR13 (YbbR13: N-term GFP, C-term 6xHis) it was “no”; with YbbR13 (YbbR13 free peptide: N-term N/A, C-term N/A), “no”.
